B1: RSPH3 (parent)
chain: VDVQTELYLEEIADRIIEVDMECQ
B2: MTMR15 (parent)
chain: YVKAKKSIDKDEEFAGSSPQSSKS

Variants of: B1
Assay: protein stability index of a GFP-peptide fusion (GPS, HEK-293T) (PSI 1-6); higher = more stable
Conditions: c terminus: a fixed tail appended
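Further: lentivirally expressed fusions sorted by FACS into six bins by GFP to DsRed ratio, PSI derived from sequencing read proportions per bin multiplied by bin number.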

Protein stability index: each site, then its substitutions
E10: H 2; Y 3.16; N 2.06; T 1.86; W 3.73; P 3.62; C 1.58; K 2.48; S 2.39; F 2.25; R 2.15; D 2.54; G 2.42; A 1.53; Q 1.93
I16: R 3.23; V 3.37; W 2.97; M 2.36; H 4.19; P 4.93; K 4.49; F 1.87; Y 2.57; Q 4.18; C 2.85; E 4.48; D 4.54; T 4.19; A 3.63; G 4.3
Q24: W 1.5; L 1.33; F 1.14; Y 2.69; E 2.31; I 2.32; K 2.12; D 2.82; P 3.33; V 1.84; C 2.32; A 1.95; R 2.52; S 2.72; H 2.52; G 2.79; M 1.59; N 2.05; T 3.69
R15: E 3.55; Y 2.79; V 2.65; C 1.54; T 2.56; N 3.66; P 3.73; M 2.24; S 3.16; W 3.01; D 3.17; F 2.31; H 2.77; G 3.14; K 3.1; Q 3.58; A 2.55
D14: K 1.93; Q 2.32; S 2.08; P 2.45; E 1.92; W 3.47; A 1.94; H 1.55; N 2.11; T 1.93
Y8: R 3.11; I 1.71; T 3.5; A 4.03; M 2.34; N 4; P 3.77; E 4.48; W 2.51; H 3.85; Q 4.25; G 4.65; S 3.65; V 2.85; C 3.04; F 1.92; D 4.25
L9: P 4.5; F 2.21; D 5.51; H 4.71; T 4.38; I 2.33; V 2.91; R 4.19; Q 5.62; A 4.01; C 3.4; N 5.14; E 5.12; M 3.33; K 4.65; W 1.97; Y 2.79; G 4.44; S 4.92
L7: V 1.45; N 3.96; Y 2.34; W 2.04; S 3.06; P 3.07; R 2.65; T 3; Q 3.41
D20: T 3.29; P 3.46; A 2.54; K 2.24; R 1.15; V 2.51; Q 3.34; L 4.62; G 1.85; E 1.71; N 1.82; F 3.1; Y 4.28; H 2.46; S 1.65; I 3.01
A13: E 2.87; N 3.2; S 2.57; G 2.95; Y 1.53; I 2.22; Q 3.05; W 1.65; P 3.53; M 1.58; K 3.05; C 2.31; T 2.62; R 2.27; V 2.17; D 3.9; F 2.41; H 2.5
M21: S 3.85; G 4.38; A 3.23; P 4.45; H 3.59; L 1.66; Y 1.94; F 1.47; W 1.76; N 2.99; I 1.91; C 2.38; T 3.43; D 4.54; R 3.8; K 2.27; E 3.85; Q 2.49; V 1.99
C23: E 4.22; V 5.09; T 3.68; K 4.46; S 3.85; F 2.07; R 3.46; I 2.23; G 3.72; P 4.06; H 4.03; W 1.88; M 2.34; Q 4.31; D 4.4; N 3.87; Y 2.71; L 3.52; A 3.46
E18: G 2.86; K 2.59; I 2.01; P 2.79; V 2.85; W 2.23; F 2.26; A 2.22; M 1.94; C 2.48; Y 2.03; T 2.23; S 2.44; H 2.31; R 2.51; D 3.12; N 2.7; Q 1.57
I17: V 2.39; R 3.33; M 1.87; Q 3.47; C 2.58; G 4.14; E 3.87; N 2.81; K 3.65; T 3.6; A 2.41; D 3.99; F 1.96; H 2.94; P 4.26; Y 2.09; L 2.17; S 3.74
I12: A 4.36; H 4.28; S 4.98; M 3.11; Y 2.96; N 4.46; Q 4.37; R 4.25; T 4.42; P 4.53; E 4.84; L 1.72; W 1.12; F 1.61; G 4.63; V 2.91; K 4.77; D 4.39; C 3.22
E11: R 2.22; H 2.23; S 2.02; Y 2.88; D 1.82; P 2.98; K 2.85; I 3.16; T 2.41; Q 2.73; G 2.48; N 3.26; A 1.95; C 2.83; F 1.89; M 3.38
E22: C 1.89; I 2.81; F 1.9; P 2.88; T 2.17; H 2.06; M 2.83; A 1.99; Y 2.82; V 1.57; S 2.22; R 2.03; K 2.27; G 3.05; D 2.77; Q 2.01; L 2.53; N 2.86
V19: Y 2.58; R 4.23; I 2.36; A 3.81; Q 3.76; M 2.79; H 3.55; W 2.28; C 1.89; L 1.59; E 4.65; S 4.1; K 4.5; T 3.95; D 5.01; P 4.3; F 2.3; G 4.16; N 4.1

Variants of: B2
Assay: as above
Conditions: c terminus: a fixed tail appended

Protein stability index: each site, then its substitutions
Y1: E 5.82; K 5.15; S 5.49; N 5.4; C 5.51; M 5.01; H 5.11; T 5.69; D 5.62; I 5.52; G 5.7; Q 5.48; R 5.62; W 4.66; V 5.29; F 2.79; P 5.19; L 5.14; A 5.37
V2: E 5.56; P 4.76; H 4.49; F 4.74; N 5.16; M 4.91; A 5.13; K 5.26; I 4.23; D 5.5; L 4.84; G 5.2; C 4.52
